Patent publication US7556938B1, “Nucleic acids encoding potassium channel interactors” (Millennium Pharmaceuticals, Inc., priority 1998, dated 2009)

What was measured:
rKv4.3N = biological target: T1, rKv4.3N (Rattus norvegicus, UniProt Q62897); experiment: Yeast two-hybrid binding and specificity test, Kv4.3 N-terminal bait; conditions: for preference between rKv4.3N and rKv4.2N in yeast two-hybrid assay: rKv4.3N versus rKv4.2N
T1 construct: expressed in transfected cells; host or cells: yeast HF7c (bait), mated with Y187 (fish)
T1 sequence (Q62897 1-180): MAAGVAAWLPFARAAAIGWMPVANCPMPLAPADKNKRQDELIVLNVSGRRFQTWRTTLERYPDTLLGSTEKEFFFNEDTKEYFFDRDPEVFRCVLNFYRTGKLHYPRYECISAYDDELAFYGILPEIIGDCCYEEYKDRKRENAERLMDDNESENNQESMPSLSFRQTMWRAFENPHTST
Experimental: The first 180 amino acids of rKv4.3 (described in Serdio P. et al. (1996) J. Neurophys 75:2174-2179) were amplified by PCR and cloned in frame into pGBT9 resulting in plasmid pFWA2, (hereinafter “bait”). This bait was transformed into the two-hybrid screening strain HF7c and tested for expression and self-activation. The bait was validated for expression by Western blotting.
(§1) Two-hybrid screens were carried out essentially as described in Bartel, P. et al. (1993) “Using the Two-Hybrid System to Detect Polypeptide-Polypeptide Interactions” in Cellular Interactions in Development: A Practical Approach, Hartley, D. A. ed. Oxford University Press, Oxford, pp. 153-179, with a bait-library pair of rkv4.3 bait-rat mid brain library. A filter disk beta-galactosidase (beta-gal) assay was performed essentially as previously described (Brill et al. (1994) Mol. Biol. Cell. 5:297-312). Clones that were positive for both reporter gene activity (His and beta-galactosidase) were scored and fish, plasmids were isolated from yeast, transformed into E. coli strain KC8, DNA plasmids were purified and the resulting plasmids were sequenced by conventional methods (Sanger F. et al. (1977) PNAS, 74: 5463-67).
(§2) Positive interactor clones were subjected to a binding specificity test where they were exposed to a panel of related and unrelated baits by a mating scheme previously described (Finley R. L. Jr. et al. (1994) PNAS, 91(26):12980-12984). Briefly, positive fish plasmids were transformed into Y187 and the panel of baits were transformed into HF7c. Transformed fish and bait cells were streaked out as stripes on selective medium plates, mated on YPAD plates, and tested for reporter gene activity.

rKv4.2N = biological target: T2, rKv4.2N (Rattus norvegicus, UniProt Q63881); experiment: Yeast two-hybrid binding and specificity test, Kv4.2 N-terminal bait
T2 construct: the N-terminal domains of Kv4.3, Kv4.2 were expressed as “baits” (Kv4.3N, Kv4.2N, respectively); expressed in transfected cells; host or cells: yeast HF7c (baits), mated with Y187 (fish)
T2 sequence (Q63881 1-184 limits assumed): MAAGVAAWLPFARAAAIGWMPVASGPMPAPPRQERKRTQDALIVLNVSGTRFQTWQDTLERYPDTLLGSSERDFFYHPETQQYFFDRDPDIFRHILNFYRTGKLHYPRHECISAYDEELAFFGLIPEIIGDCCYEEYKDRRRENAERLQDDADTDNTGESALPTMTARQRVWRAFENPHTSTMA
Experimental: as §1, §2

rKv1.1N = biological target: T3, rKv1.1N (Rattus norvegicus, UniProt P10499); experiment: Yeast two-hybrid binding and specificity test, Kv1.1 N-terminal bait
T3 construct: expressed in transfected cells; host or cells: yeast HF7c (baits), mated with Y187 (fish)
Experimental: as §1, §2

T3 sequence (P10499 1-164 limits assumed): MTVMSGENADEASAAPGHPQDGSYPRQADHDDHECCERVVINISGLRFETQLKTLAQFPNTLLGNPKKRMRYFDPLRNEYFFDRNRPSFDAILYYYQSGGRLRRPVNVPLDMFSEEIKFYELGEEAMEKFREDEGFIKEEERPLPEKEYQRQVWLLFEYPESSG

B1: Rat 19r: identical to Rat phosphatidylinositol (PTDINS) transfer protein alpha (protein)
chain: MVLLKEYRVILPVSVDEYQVGQLYSVAEASKNETGGGEGVEVLVNEPYEKDDGEKGQYTHKIYHLQSKVPTFVRMLAPEGALNIHEKAWNAYPYCRTVITNEYMKEDFLIKIETWHKPDLGTQENVHKLEPEAWKHVEAIYIDIADRSQVLSKDYKAEEDPAKFKSIKTGRGPLGPNWKQELVNQKDCPYMCAYKLVTVKFKWWGLQNKVENFIHKQEKRLFTNFHRQLFCWLDKWVDLTMDDIRRMEEETKRQLDEMRQKDPVKGMTADD
rKv4.3N
  binding to rKv4.3N in yeast two-hybrid assay: binds
  preference between rKv4.3N and rKv4.2N in yeast two-hybrid assay: slight preference for rKv4.3N
rKv4.2N
  binding to rKv4.2N in yeast two-hybrid assay: binds
rKv1.1N
  binding to rKv1.1N in yeast two-hybrid assay: does not bind

B2: Rat 7q: identical to RAB2 (rat RAS-related protein) (protein)
chain: MAYAYLFKYIIIGDTGVGKSCLLLQFTDKRFQPVHDLTIGVEFGARMITIDGKQIKLQIWDTAGQESFRSITRSYYRGAAGALLVYDITRRDTFNHLTTWLEDARQHSNSNMVIMLIGNKSDLESRREVKKEEGEAFAREHGLIFMETSAKTASNVEEAFINTAKEIYEKIQEGVFDINNEANGIKIGPQHAATNASHGGNQGGQQAGGGCC
rKv4.3N
  binding to rKv4.3N in yeast two-hybrid assay: binds
  preference between rKv4.3N and rKv4.2N in yeast two-hybrid assay: same strength
rKv4.2N
  binding to rKv4.2N in yeast two-hybrid assay: binds
rKv1.1N
  binding to rKv1.1N in yeast two-hybrid assay: does not bind
